According to article PMC9946822, “Widely conserved AHL transcription factors are essential for NCR gene expression and nodule development in Medicago”:

Assays:
Assay in all cases: EMSA; 0-300 ng protein titration; EMSA as in Chen (ref. 37), 10 ng probe and 200 ng protein (titration 0-300 ng), SYBR Gold stain; binding buffer, pH and temperature not stated; protein eluted in BS/THES (22 mM Tris-HCl pH 7.5, 4.4 mM EDTA, 8.9% sucrose, 62 mM NaCl, 10 mM HEPES, 5 mM CaCl2, 50 mM KCl, 12% glycerol) with 150 mM imidazole
Details in all cases: protein: recombinant; tags: His (pET28a); blunt
GmAHL1 = GmAHL1 (Glycine max, UniProt C6TMY6 1-268)
Chain of GmAHL1 (C6TMY6 entry or part of it): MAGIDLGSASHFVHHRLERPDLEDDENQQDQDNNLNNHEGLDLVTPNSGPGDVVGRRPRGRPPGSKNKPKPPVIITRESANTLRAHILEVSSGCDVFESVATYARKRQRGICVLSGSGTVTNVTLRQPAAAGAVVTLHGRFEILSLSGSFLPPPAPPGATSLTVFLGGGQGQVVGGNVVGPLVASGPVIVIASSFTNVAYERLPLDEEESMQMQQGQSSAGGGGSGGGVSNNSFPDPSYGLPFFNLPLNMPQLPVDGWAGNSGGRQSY

MtAHL2 = MtAHL2 (Medicago truncatula, UniProt G7KSI4 1-269)
Chain of MtAHL2 (G7KSI4 entry or part of it): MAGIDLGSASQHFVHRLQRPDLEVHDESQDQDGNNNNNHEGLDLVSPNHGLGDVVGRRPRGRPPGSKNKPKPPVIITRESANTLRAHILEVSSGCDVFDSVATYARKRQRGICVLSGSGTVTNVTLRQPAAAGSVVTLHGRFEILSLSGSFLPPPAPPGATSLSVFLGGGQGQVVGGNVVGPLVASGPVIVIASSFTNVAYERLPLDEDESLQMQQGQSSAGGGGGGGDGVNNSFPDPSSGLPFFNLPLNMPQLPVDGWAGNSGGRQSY

MtAHL1 = MtAHL1 (Medicago truncatula, UniProt G7JGG2 1-296)
Chain of MtAHL1 (G7JGG2 entry or part of it): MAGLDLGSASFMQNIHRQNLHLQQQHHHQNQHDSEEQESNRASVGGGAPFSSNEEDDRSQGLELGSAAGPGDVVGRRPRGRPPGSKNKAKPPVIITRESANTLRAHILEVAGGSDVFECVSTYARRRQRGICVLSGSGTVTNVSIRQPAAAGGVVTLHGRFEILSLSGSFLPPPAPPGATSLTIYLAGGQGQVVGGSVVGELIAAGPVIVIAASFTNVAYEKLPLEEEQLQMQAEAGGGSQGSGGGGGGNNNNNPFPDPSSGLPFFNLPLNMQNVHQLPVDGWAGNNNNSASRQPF

Measured: binding result

B1: probe H0 (dsDNA)
DNA 1: TTAATAATTATTTTAATTTTCAAAAAGTATTAATTAC
DNA 2: GTAATTAATACTTTTTGAAAATTAAAATAATTATTAA
binds: all assays above
